Numbered stars: 1 amine (or outer) side, 2 acyl side, 3 side chain; on linkers, the order of the positions; unused ones are H or OH. Bridge positions count the residues as written; N and C are the ends. Square brackets hold non-standard residues; d marks the D form. Primed or numbered codes have the meaning given here. * marks the point of attachment. tMeBn(DOTA-PP) = 1,3,5-trimethylbenzylidene, two thioethers to Cys, third CH2 bound to one N of piperazine whose other N bears DOTA, O=C(O)CN1CCN(CC(=O)O)CCN(CC(=O)N2CCN(Cc3cc(C[*:1])cc(C[*:2])c3)CC2)CCN(CC(=O)O)CC1; Ttds″ = 1,13-diamino-4,7,10-trioxatridecan-succinamic acid spacer, O=C(CCC(=O)[*:2])NCCCOCCOCCOCCCN[*:1]; TBMB(SCH2CH2NH-DOTA) = O=C(O)CN1CCN(CC(=O)O)CCN(CC(=O)NCCSCc2cc(C[*:1])cc(C[*:2])c2)CCN(CC(=O)O)CC1; Ttds = 1,13-diamino-4,7,10-trioxatridecan-succinamic acid, O=C(CCC(=O)[*:2])NCCCOCCOCCOCCCN[*:1]; DOTA = O=C(O)CN1CCN(CC(=O)O)CCN(CC(=O)*)CCN(CC(=O)O)CC1; 3Lut″ = 3,5-lutidylidene (from 3,5-lutidine); mXylylene = c1cc(C[*:1])cc(C[*:2])c1; Pentanesulfonyl = CCCCCS(=O)(=O)*; NMeF = CN[C@@H](Cc1ccccc1)C(=O)O; Tic = O=C(O)[C@@H]1Cc2ccccc2CN1; Nle = CCCC[C@H](N)C(=O)O; 2Lut = 2,6-lutidylidene; Hexanoyl = CCCCCC(=O)*
What was measured:
[1] = target: Recombinant human FAP (R&D systems, #3715-SE) (human, UniProt Q12884 26-760); test: cell-based or functional assay
[2] = target: T1, fibroblast activation protein (FAP) on FAP-expressing human WI-38 fibroblasts (human, UniProt Q12884 1-760); test: competitive FACS, WI-38 cells, vs Cy5 tracer m3; A = pIC50 >8.0
T1 construct: also called human FAP

Row | pIC50 Category (Activity) [1] | pIC50 Category (FACS) [2] | Binder
1 | > 8 pIC50 | > 8 pIC50 | Hexanoyl-CPPTQFCD-OH (linker 1-7 via TBMB(SCH2CH2NH-DOTA); SMILES CCCCCC(=O)N[C@H]1CSCc2cc(CSCCNC(=O)CN3CCN(CC(=O)O)CCN(CC(=O)O)CCN(CC(=O)O)CC3)cc(c2)CSC[C@@H](C(=O)N[C@@H](CC(=O)O)C(=O)O)NC(=O)[C@H](Cc2ccccc2)NC(=O)[C@H](CCC(N)=O)NC(=O)[C@H]([C@@H](C)O)NC(=O)[C@@H]2CCCN2C(=O)[C@@H]2CCCN2C1=O, also called 3BP-3665) [Hex-[Cys(tMeBn(DOTA-AET))-Pro-Pro-Thr-Gln-Phe-Cys]-Asp-OH]
2 | > 8 pIC50 | > 8 pIC50 | Ac-[dM]CPPTEFCDHFRD-NH2 (linker 2-8 via mXylylene; SMILES CSCC[C@@H](NC(C)=O)C(=O)N[C@H]1CSCc2cccc(c2)CSC[C@@H](C(=O)N[C@@H](CC(=O)O)C(=O)N[C@@H](Cc2c[nH]cn2)C(=O)N[C@@H](Cc2ccccc2)C(=O)N[C@@H](CCCNC(=N)N)C(=O)N[C@@H](CC(=O)O)C(N)=O)NC(=O)[C@H](Cc2ccccc2)NC(=O)[C@H](CCC(=O)O)NC(=O)[C@H]([C@@H](C)O)NC(=O)[C@@H]2CCCN2C(=O)[C@@H]2CCCN2C1=O, also called 3BP-3187) [Ac-met-[Cys(3MeBn)-Pro-Pro-Thr-Glu-Phe-Cys]-Asp-His-Phe-Arg-Asp-NH2]
3 | > 8 pIC50 | > 8 pIC50 | Ac-MCPPTEFCDH[Tic]RD-NH2 (linker 2-8 via mXylylene; SMILES CSCC[C@H](NC(C)=O)C(=O)N[C@H]1CSCc2cccc(c2)CSC[C@@H](C(=O)N[C@@H](CC(=O)O)C(=O)N[C@@H](Cc2c[nH]cn2)C(=O)N2Cc3ccccc3C[C@H]2C(=O)N[C@@H](CCCNC(=N)N)C(=O)N[C@@H](CC(=O)O)C(N)=O)NC(=O)[C@H](Cc2ccccc2)NC(=O)[C@H](CCC(=O)O)NC(=O)[C@H]([C@@H](C)O)NC(=O)[C@@H]2CCCN2C(=O)[C@@H]2CCCN2C1=O, also called 3BP-3189) [Ac-Met-[Cys(3MeBn)-Pro-Pro-Thr-Glu-Phe-Cys]-Asp-His-Tic-Arg-Asp-NH2]
4 | > 8 pIC50 | > 8 pIC50 | Pentanesulfonyl-CPPTQFCD-NH2 (linker 1-7 via mXylylene; SMILES CCCCCS(=O)(=O)N[C@H]1CSCc2cccc(c2)CSC[C@@H](C(=O)N[C@@H](CC(=O)O)C(N)=O)NC(=O)[C@H](Cc2ccccc2)NC(=O)[C@H](CCC(N)=O)NC(=O)[C@H]([C@@H](C)O)NC(=O)[C@@H]2CCCN2C(=O)[C@@H]2CCCN2C1=O, also called 3BP-3514) [Pentyl-SO2-[Cys(3MeBn)-Pro-Pro-Thr-Gln-Phe-Cys]-Asp-NH2]
5 | > 8 pIC50 | > 8 pIC50 | CPPTQFCD (N-term Hex; Cys1/Cys7 thioether-bridged by tMeBn carrying DOTA-AET; D-Asp8; C-term amide, also called 3BP-3681) [Hex-[Cys(tMeBn(DOTA-AET))-Pro-Pro-Thr-Gln-Phe-Cys]-asp-NH2]
6 | > 8 pIC50 | > 8 pIC50 | Ac-MCPPTEFCDH[NMeF]RD-NH2 (linker 2-8 via mXylylene; SMILES CSCC[C@H](NC(C)=O)C(=O)N[C@H]1CSCc2cccc(c2)CSC[C@@H](C(=O)N[C@@H](CC(=O)O)C(=O)N[C@@H](Cc2c[nH]cn2)C(=O)N(C)[C@@H](Cc2ccccc2)C(=O)N[C@@H](CCCNC(=N)N)C(=O)N[C@@H](CC(=O)O)C(N)=O)NC(=O)[C@H](Cc2ccccc2)NC(=O)[C@H](CCC(=O)O)NC(=O)[C@H]([C@@H](C)O)NC(=O)[C@@H]2CCCN2C(=O)[C@@H]2CCCN2C1=O, also called 3BP-3188) [Ac-Met-[Cys(3MeBn)-Pro-Pro-Thr-Glu-Phe-Cys]-Asp-His-Nmf-Arg-Asp-NH2]
7 | > 8 pIC50 | > 8 pIC50 | {DOTA}-[Ttds][Nle]CPPTEFCDHFRD-NH2 (linker 3-9 via mXylylene; SMILES CCCC[C@H](NC(=O)CCC(=O)NCCCOCCOCCOCCCNC(=O)CN1CCN(CC(=O)O)CCN(CC(=O)O)CCN(CC(=O)O)CC1)C(=O)N[C@H]1CSCc2cccc(c2)CSC[C@@H](C(=O)N[C@@H](CC(=O)O)C(=O)N[C@@H](Cc2c[nH]cn2)C(=O)N[C@@H](Cc2ccccc2)C(=O)N[C@@H](CCCNC(=N)N)C(=O)N[C@@H](CC(=O)O)C(N)=O)NC(=O)[C@H](Cc2ccccc2)NC(=O)[C@H](CCC(=O)O)NC(=O)[C@H]([C@@H](C)O)NC(=O)[C@@H]2CCCN2C(=O)[C@@H]2CCCN2C1=O) [DOTA-Ttds-Nle-[Cys(3MeBn)-Pro-Pro-Thr-Glu-Phe-Cys]-Asp-His-Phe-Arg-Asp-NH2]
8 | > 8 pIC50 | > 8 pIC50 | Pentanesulfonyl-CPPTQFCD-NH2 (linker 1-7 via tMeBn(DOTA-PP); SMILES CCCCCS(=O)(=O)N[C@H]1CSCc2cc(cc(CN3CCN(C(=O)CN4CCN(CC(=O)O)CCN(CC(=O)O)CCN(CC(=O)O)CC4)CC3)c2)CSC[C@@H](C(=O)N[C@@H](CC(=O)O)C(N)=O)NC(=O)[C@H](Cc2ccccc2)NC(=O)[C@H](CCC(N)=O)NC(=O)[C@H]([C@@H](C)O)NC(=O)[C@@H]2CCCN2C(=O)[C@@H]2CCCN2C1=O, also called 3BP-3692) [Pentyl-SO2-[Cys(tMeBn(DOTA-PP))-Pro-Pro-Thr-Gln-Phe-Cys]-Asp-NH2]
9 | > 8 pIC50 | > 8 pIC50 | Hexanoyl-CPPTEFCDHFRD[Ttds″]K(DOTA)-NH2 (linker 1-7 via mXylylene; SMILES CCCCCC(=O)N[C@H]1CSCc2cccc(c2)CSC[C@@H](C(=O)N[C@@H](CC(=O)O)C(=O)N[C@@H](Cc2c[nH]cn2)C(=O)N[C@@H](Cc2ccccc2)C(=O)N[C@@H](CCCNC(=N)N)C(=O)N[C@@H](CC(=O)O)C(=O)NCCCOCCOCCOCCCNC(=O)CCC(=O)N[C@@H](CCCCNC(=O)CN2CCN(CC(=O)O)CCN(CC(=O)O)CCN(CC(=O)O)CC2)C(N)=O)NC(=O)[C@H](Cc2ccccc2)NC(=O)[C@H](CCC(=O)O)NC(=O)[C@H]([C@@H](C)O)NC(=O)[C@@H]2CCCN2C(=O)[C@@H]2CCCN2C1=O) [Hex-[Cys(3MeBn)-Pro-Pro-Thr-Glu-Phe-Cys]-Asp-His-Phe-Arg-Asp-Ttds-Lys(DOTA)-NH2]
10 | > 8 pIC50 | > 8 pIC50 | Hexanoyl-CPPTQFCD-NH2 (linker 1-7 via mXylylene; SMILES CCCCCC(=O)N[C@H]1CSCc2cccc(c2)CSC[C@@H](C(=O)N[C@@H](CC(=O)O)C(N)=O)NC(=O)[C@H](Cc2ccccc2)NC(=O)[C@H](CCC(N)=O)NC(=O)[C@H]([C@@H](C)O)NC(=O)[C@@H]2CCCN2C(=O)[C@@H]2CCCN2C1=O) [Hex-[Cys(3MeBn)-Pro-Pro-Thr-Gln-Phe-Cys]-Asp-NH2]
11 | > 8 pIC50 | > 8 pIC50 | Hexanoyl-CPPTQFCD-NH2 (linker 1-7 via 3Lut″, also called 3BP-3519) [Hex-[Cys(3Lut)-Pro-Pro-Thr-Gln-Phe-Cys]-Asp-NH2]
12 | > 8 pIC50 | > 8 pIC50 | Hexanoyl-CPPTQFCD-NH2 (linker 1-7 via 2Lut, also called 3BP-3518) [Hex-[Cys(2Lut)-Pro-Pro-Thr-Gln-Phe-Cys]-Asp-NH2]
13 | > 8 pIC50 | > 8 pIC50 | CPPTQFX (not fully specified; N-term Hex; X7 = AET (2-aminoethanethiol, no carboxyl group); Cys1/AET7 thioether-bridged by tMeBn carrying InDOTA-AET (indium complex), also called 3BP-3713) [Hex-[Cys(tMeBn(InDOTA-AET))-Pro-Pro-Thr-Gln-Phe-AET]]
14 | > 8 pIC50 | > 8 pIC50 | Hexanoyl-CPPTQFCD-NH2 (linker 1-7 via tMeBn(LuDOTA-PP); also: lutetium complex of DOTA, also called 3BP-3591) [Hex-[Cys(tMeBn(LuDOTA-PP))-Pro-Pro-Thr-Gln-Phe-Cys]-Asp-NH2]
15 | > 8 pIC50 | > 8 pIC50 | Hexanoyl-CPPTQFCD-NH2 (linker 1-7 via tMeBn(InDOTA-PP); also: indium complex of DOTA, also called 3BP-3590) [Hex-[Cys(tMeBn(InDOTA-PP))-Pro-Pro-Thr-Gln-Phe-Cys]-Asp-NH2]
16 | > 8 pIC50 | > 8 pIC50 | Hexanoyl-CPPTQFCD-NH2 (linker 1-7 via tMeBn(GaDOTA-PP); also: gallium complex of DOTA, also called 3BP-3592) [Hex-[Cys(tMeBn(GaDOTA-PP))-Pro-Pro-Thr-Gln-Phe-Cys]-Asp-NH2]
17 | > 8 pIC50 | > 8 pIC50 | Hexanoyl-CPPTQFCD-NH2 (linker 1-7 via tMeBn(EuDOTA-PP); also: europium complex of DOTA, also called 3BP-3661) [Hex-[Cys(tMeBn(EuDOTA-PP))-Pro-Pro-Thr-Gln-Phe-Cys]-Asp-NH2]
18 | > 8 pIC50 | > 8 pIC50 | {DOTA}-[Ttds]MCPPTEFCDHFRD-NH2 (linker 3-9 via mXylylene; SMILES CSCC[C@H](NC(=O)CCC(=O)NCCCOCCOCCOCCCNC(=O)CN1CCN(CC(=O)O)CCN(CC(=O)O)CCN(CC(=O)O)CC1)C(=O)N[C@H]1CSCc2cccc(c2)CSC[C@@H](C(=O)N[C@@H](CC(=O)O)C(=O)N[C@@H](Cc2c[nH]cn2)C(=O)N[C@@H](Cc2ccccc2)C(=O)N[C@@H](CCCNC(=N)N)C(=O)N[C@@H](CC(=O)O)C(N)=O)NC(=O)[C@H](Cc2ccccc2)NC(=O)[C@H](CCC(=O)O)NC(=O)[C@H]([C@@H](C)O)NC(=O)[C@@H]2CCCN2C(=O)[C@@H]2CCCN2C1=O) [DOTA-Ttds-Met-[Cys(3MeBn)-Pro-Pro-Thr-Glu-Phe-Cys]-Asp-His-Phe-Arg-Asp-NH2]
19 | > 8 pIC50 | > 8 pIC50 | {DOTA}-[Ttds″]LCPPTEFCDHFRD-NH2 (linker 3-9 via mXylylene; SMILES CC(C)C[C@H](NC(=O)CCC(=O)NCCCOCCOCCOCCCNC(=O)CN1CCN(CC(=O)O)CCN(CC(=O)O)CCN(CC(=O)O)CC1)C(=O)N[C@H]1CSCc2cccc(c2)CSC[C@@H](C(=O)N[C@@H](CC(=O)O)C(=O)N[C@@H](Cc2c[nH]cn2)C(=O)N[C@@H](Cc2ccccc2)C(=O)N[C@@H](CCCNC(=N)N)C(=O)N[C@@H](CC(=O)O)C(N)=O)NC(=O)[C@H](Cc2ccccc2)NC(=O)[C@H](CCC(=O)O)NC(=O)[C@H]([C@@H](C)O)NC(=O)[C@@H]2CCCN2C(=O)[C@@H]2CCCN2C1=O, also called 3BP-3172) [DOTA-Ttds-Leu-[Cys(3MeBn)-Pro-Pro-Thr-Glu-Phe-Cys]-Asp-His-Phe-Arg-Asp-NH2]
20 | > 8 pIC50 | > 8 pIC50 | Ac-M[dC]PPTEFCDHFRD-NH2 (linker 2-8 via mXylylene; SMILES CSCC[C@H](NC(C)=O)C(=O)N[C@@H]1CSCc2cccc(c2)CSC[C@@H](C(=O)N[C@@H](CC(=O)O)C(=O)N[C@@H](Cc2c[nH]cn2)C(=O)N[C@@H](Cc2ccccc2)C(=O)N[C@@H](CCCNC(=N)N)C(=O)N[C@@H](CC(=O)O)C(N)=O)NC(=O)[C@H](Cc2ccccc2)NC(=O)[C@H](CCC(=O)O)NC(=O)[C@H]([C@@H](C)O)NC(=O)[C@@H]2CCCN2C(=O)[C@@H]2CCCN2C1=O, also called 3BP-3175) [Ac-Met-[cys(3MeBn)-Pro-Pro-Thr-Glu-Phe-Cys]-Asp-His-Phe-Arg-Asp-NH2]

From patent US20230212549A1 (3B PHARMACEUTICALS, published 2023)
